From patent US20260028391A1 come the findings set out here.

What is called Kd is the constant that tells how readily two partners part at equilibrium.

Values joined by “and” are separate entries in the source; they are usually repeats but may differ in a detail not shown here. Equal entries are not always repeated.

For assay [1], the target named is RSV F A N208Y-N671I (RSV A, strain A2) (UniProt P03420). The assay can be described thus: FACS, % binding to RSV F A variants. Background: A flow cytometer gives signals particle by particle.
For assay [2], the target named is RSV F A S433P (RSV A, strain A2) (UniProt P03420). Briefly: FACS, % binding to RSV F A variants.
The target of assay [3] is RSV F A S433P-G446E (RSV A, strain A2) (UniProt P03420). Briefly: FACS, % binding to RSV F A variants.
Assay [4] addresses biot-MPV-F D280N (metapneumovirus (MPV)). The assay can be described thus: BLI (Octet), biotinylated F on SA sensors, mAb 5 µg/ml; batch KYT. A general note: BLI is a label-free optical method that tracks binding on a fibre tip over time.
For assay [5], the target named is biot-MPV-F wt (metapneumovirus (MPV)). The assay is described as above.
Assay [6] deals with biot-RSV-F wt (respiratory syncytial virus (RSV)). The assay is described as above.
Assay [7] concerns the target biot-MPV-F D280N (metapneumovirus (MPV)). The assay can be described thus: BLI (Octet), biotinylated F on SA sensors, mAb 5 µg/ml; forced deamidation sample, day 0.
In assay [8] the target is biot-MPV-F wt (metapneumovirus (MPV)). Described as above.
Assay [9] deals with biot-RSV-F wt (respiratory syncytial virus (RSV)). The assay is described as above.
The target in assay [10] is biot-MPV-F D280N (metapneumovirus (MPV)). Briefly: BLI (Octet), biotinylated F on SA sensors, mAb 5 µg/ml; forced deamidation sample, day 7 at 40 °C.
For assay [11], the target named is biot-MPV-F wt (metapneumovirus (MPV)). The assay is described as above.
Assay [12] concerns the target biot-RSV-F wt (respiratory syncytial virus (RSV)). Described as above.
The target in assay [13] is biot-MPV-F D280N (metapneumovirus (MPV)). Briefly: BLI (Octet), biotinylated F on SA sensors, mAb 5 µg/ml; forced deamidation sample, day 13 at 40 °C.
Assay [14] has as its target biot-MPV-F wt (metapneumovirus (MPV)). The assay is described as above.
Assay [15] concerns the target biot-RSV-F wt (respiratory syncytial virus (RSV)). The assay is described as above.
For assay [16] the target is unchanged. Briefly: BLI, SA sensor loaded with biot-RSV-F wt, mAb 5 ug/ml, 4 min association, 6 min dissociation.
In assay [17] the target is biot-MPV-F wt (metapneumovirus (MPV)). Briefly: BLI, SA sensor loaded with biot-MPV-F wt, mAb 5 ug/ml, 4 min association, 6 min dissociation.
Assay [18] addresses biot-MPV-F D280N (metapneumovirus (MPV)). The assay can be described thus: BLI, SA sensor loaded with biot-MPV-F D280N (sheet title 'MPV-G D280N'), mAb 5 ug/ml, 4 min association, 6 min dissociation.
Assay [19] has as its target fusion glycoprotein of Human Metapneumovirus-GFP CAN97-83 (Vira Tree M121) (human metapneumovirus CAN97-83) (UniProt Q6WB98). Briefly: cell-based or functional assay.
Assay [20] addresses fusion glycoprotein of Human metapneumovirus-TN/96-213 (BEI NR-22243) (human metapneumovirus TN/96-213). The assay can be described thus: cell-based or functional assay.
Assay [21] has as its target fusion glycoprotein of the MPV D280 used in the neutralization assay of Example 3 (metapneumovirus (strain not stated)). The assay can be described thus: cell-based or functional assay.
The target in assay [22] is MPV fusion glycoprotein MPV-F D280 (metapneumovirus (strain not stated)). Briefly: SPR; sensors loaded with F protein, mAb in solution. On the technique in general: SPR reads the build-up and loss of mass on a sensor chip optically.
The target of assay [23] is MPV fusion glycoprotein MPV-F N280 (metapneumovirus (strain not stated)). Described as above.
Assay [24] concerns the target MPV fusion glycoprotein MPV-F D280 (metapneumovirus (strain not stated)). Briefly: SPR; sensors loaded with MPV-F, mAb in solution (Experiment 3).
For assay [25], the target named is MPV fusion glycoprotein MPV-F N280 (metapneumovirus (strain not stated)). The description is as above.
Assay [26] addresses MPV fusion glycoprotein with the D280N mutation (MPV-F N280), recombinant protein loaded on sensors (metapneumovirus (MPV), strain not stated). The assay can be described thus: same manner as Experiment 1, RUN10, MPV-F D280 or MPV-F N280 on the sensors (Example 6, Experiment 3).

B1: MPK65-v2-v1.2 (antibody, V domains shown)
VH: QVPLVQSGAEVKKPGESLKISCKGSGYSFINYWIGWVRQMPGKGLEWMGVIYPFDSDTKYSPSFQGHVTISADKSSNTAYVQWSSLKASDTAMYYCARFTFGIAVVTDDVSGEGQAFEIWGQGTMVTVSS
VL: QIVMMQSPATLSVSPGERATLSCRASQSVAGNLAWYQQRPGQAPRLLIYGASTRATGVPARFSGSGSETEFTLTISSLQSEDFAVYYCHQYSNLPQAFGQGTRLDIK
For the molecule B1, the % binding in assay [1] was 0.38%; in assay [2], 31.7%; in assay [3], 32.9%.

B2: MPK190-rIgG1-LS (antibody, V domains shown)
VH: EVQLVESGGGLVKPGGSLTLSCAASGFSISGYGMNWVRQAPGRGLEWVASISASSTYIYYADSMKGRFTISRDNGKTSLYLQMKSLRAEDTAVYYCARAPIEPPYFDLWGRGTLVTVSS
VL: QSVLTQPPSVSGAPGQRVTISCTGSNSNIGAGYDVHWYQHLPGKAPKVLIYGNNNRPSVVPDRFSGSNSGASASLAISGLQAEDEADYFCQSYDRRLSGPIFGGGTKLTVL
In the case of B2, the Kd is 0.37 nM in assay [4]; below 0.001 nM in assay [5]; 0.0539 nM in assay [6]; 0.441 nM in [7]; below 0.001 nM in [8]; below 0.001 nM in assay [9]. In addition, the Kd in assay [10] turned out to be 0.6 nM; in assay [11], 0.0159 nM; in assay [12], 0.128 nM; in [13], 0.733 nM; in assay [14], 0.0577 nM; in [15], 0.304 nM. In addition, the results for the Kd in [16], in assay [17] and in assay [18] were below 0.001 nM, below 0.001 nM and 0.381 nM, respectively.

B3: MPK15 (antibody, human IgG1, V domains shown)
VH: EVQLVESGGGLVKPGGSLRLSCTVSGITFSDAWMTWVRQAPGKGLEWVGRIKRKVDGETADYAPSVKGRFTISRDDSKSTLYLQMNSLKTEDTGLYYCLTTWSDQFWGQGTLVTVSS
VL: QSVVTQEPSLTVSPGGTVTLTCDSSSGAVTRGHYPFWFQQKPGQVPRTLIYDTSKKHSWTPARFSGSLLGDKAVLTLSGAQPEDEADYYCLLTYSGVRVFGGGTKLTVL
As to B3, the MPV D280 Neutralization by MPK15 in assay [19] turned out to be 5.8; in assay [20] it was 15.3. Also, the MPV D280 Neutralization - IC50 in [21] was 3.81 ng/mL and 3.4 ng/mL. The equilibrium dissociation constant (Kd) in [22] is 0.0784 nM; in [23] it was 0.0574 nM; in assay [24] it was 0.071 nM; in [25] it was 0.072 nM; in assay [26], 0.073 nM.
